Consider 1 molecule from patent publication US20210040181A1 (Bristol-Myers Squibb, published 2021).

For orientation: IC50 means the concentration that inhibits the measured activity by half. A lower IC50 goes with higher potency.

Test [1] concerns the target T1, EGFR-Fc (R&D Systems), ectodomain of human EGFR as a Fc fusion (human, UniProt P00533 25-645).
T1 construct: extracellular domain; Bought from R&D Systems; also called EGFR-FL-Fc; full length EGFR Fc fusion protein; not shown: Fc of the purchased fusion
Briefly: direct binding ELISA, single point; clone captured by anti-His, 50 nM receptor-Fc, anti-human Fc HRP. On the procedure: Proteins encoded by independent clones were analyzed for binding to the full length ectodomain of EGFR as well as a truncated version containing the first 525 amino acids (EGFR 525) of the EGFR ectodomain in single point direct binding assays. Anti-His antibodies were used to capture protein clones in an oriented fashion followed by incubation with full length EGFR or EGFR 525 Fc fusion proteins. Bound receptor-Fcs were detected via anti-human Fc HRP conjugate with a chromogenic readout (i.e. A450). […] The SGE control is the ¹⁰FN3 domain as shown in SEQ ID NO: 1 with the integrin binding domain (RGD) substituted with amino acids SGE.
The protein populations resulting from the above selections are expressed in E. coli as His6 tagged proteins. The direct binding ELISA relies on the oriented capture of His6 tagged clones onto anti-His monoclonal antibody plates (EMD Biosciences, San Diego, Calif.) blocked with casein block buffer (Pierce, Rockford, Ill.) for 1-2 hrs. Typically a 1:50 dilution of HTPP material (0.2-2 ug) is captured for 1 hr, followed by incubation with 50 nM of the EGFR-Fc targets. Bound EGFR-Fcs are detected by incubation with anti-human HRP. Bound HRP conjugate is detected using the colorimetric substrate TMB (BD Biosciences, San Jose, Calif.) following the manufacturer's instructions.
(In general: In an ELISA, binding on a coated surface is turned into a signal by an enzyme label.)

Test [2] has as its target T2, EGFR on the surface of human A431 cells (human, UniProt P00533 25-1210).
T2 construct: whole, on cells; also called HER-1; EGF receptor on cells
As to the kind of experiment: competition with 10 nM Eu-EGF on A431 cells, time resolved fluorescence; protein diluted in PBS buffer. On the procedure: (§1) Human epithelial carcinoma cells, clone A431, which express large numbers of EGFRs on the cell surface, are plated into 96 well tissue culture plates and allowed to adhere for 48 hours. The cells are washed with serum free media and dilutions of the selected clones are incubated with the cells for 15 minutes, 37° C. in a humidified incubator in 5% CO₂. This incubation allows binding of the clone to the EGFR on the cell surface.

Test [3] concerns the target T2, EGFR on the surface of human A431 cells. Briefly: competition with 10 nM Eu-EGF on A431 cells, time resolved fluorescence; Midscale preparation. As for the experimental part: as §1
Test [4] shares this target. As to the kind of experiment: competition with 10 nM Eu-EGF on A431 cells, time resolved fluorescence; protein diluted in Tris buffer. On the procedure: as §1
For test [5], the target named is EGFR 525-Fc (human) (UniProt P00533). As to the kind of experiment: direct binding ELISA, single point; clone captured by anti-His, 50 nM receptor-Fc, anti-human Fc HRP.
In test [6] the target is T2, EGFR on the surface of human A431 cells. As to the kind of experiment: cell-based or functional assay.

Bounds are passed on as bounds.

B1: 679F09 (designed binder)
chain: VSDVPRDLEVVAATPTSLLISWQVPRPMYQRYYRITYGETGGNSPVQEFTVPGGVRTATISGLKPGVDYTITVYAVTDYMHSEYRQYPISINYRT
notes: 10Fn3-based clone expressed in E. coli as His6 tagged protein; also called clone 679F09; not shown: His6 tag
For B1, the A450 in test [1] was found to be 2.42 A450. The IC50 in test [2] came out at 13 nM. The molecule also displayed an IC50 in test [3] of 14.7 nM. Further, in test [4], the IC50 came to 20 nM. The A450 in test [5] was determined as 2.47 A450. In test [6], the “EGF-stimulated EGFR phosphorylation on tyrosine 1068, A431 cells (In Cell Western), IC50” value stood at 2.8 µM; the “EGF-stimulated EGFR phosphorylation on tyrosine 1068, DiFi cells (ELISA), IC50” value came out at 1.49 µM; the “EGF-stimulated EGFR phosphorylation on tyrosine 1068, FaDu cells (In Cell Western), IC50” value amounted to 1.3 µM; the “EGF-stimulated ERK phosphorylation, A431 cells (In Cell Western), IC50” value worked out at 3.1 µM. Further, in test [6], the “EGF-stimulated ERK phosphorylation, DiFi cells (ELISA), IC50” value is over 4 µM; the “EGF-stimulated ERK phosphorylation, FaDu cells (In Cell Western), IC50” value was 2 µM; the “EGF-stimulated total EGFR phosphorylation, A431 cells (In Cell Western), IC50” value was determined as 2.4 µM; the “EGF-stimulated total EGFR phosphorylation, DiFi cells (ELISA), IC50” value turned out to be 5.3 µM.
